B1: Pseudomonas phage Φ6 major capsid protein P1 (natural protein, UniProt P11126 1-769, looked up)
chain: MFNLKVKDLNGSARGLTQAFAIGELKNQLSVGALQLPLQFTRTFSASMTSELLWEVGKGNIDPVMYARLFFQYAQAGGALSVDELVNQFTEYHQSTACNPEIWRKLTAYITGSSNRAIKADAVGKVPPTAILEQLRTLAPSEHELFHHITTDFVCHVLSPLGFILPDAAYVYRVGRTATYPNFYALVDCVRASDLRRMLTALSSVDSKMLQATFKAKGALAPALISQHLANAATTAFERSRGNFDANAVVSSVLTILGRLWSPSTPKELDPSARLRNTNGIDQLRSNLALFIAYQDMVKQRGRAEVIFSDEELSSTIIPWFIEAMSEVSPFKLRPINETTSYIGQTSAIDHMGQPSHVVVYEDWQFAKEITAFTPVKLANNSNQRFLDVEPGISDRMSATLAPIGNTFAVSAFVKNRTAVYEAVSQRGTVNSNGAEMTLGFPSVVERDYALDRDPMVAIAALRTGIVDESLEARASNDLKRSMFNYYAAVMHYAVAHNPEVVVSEHQGVAAEQGSLYLVWNVRTELRIPVGYNAIEGGSIRTPEPLEAIAYNKPIQPSEVLQAKVLDLANHTTSIHIWPWHEASTEFAYEDAYSVTIRNKRYTAEVKEFELLGLGQRRERVRILKPTVAHAIIQMWYSWFVEDDRTLAAARRTSRDDAEKLAIDGRRMQNAVTLLRKIEMIGTTGIGASAVHLAQSRIVDQMAGRGLIDDSSDLHVGINRHRIRIWAGLAVLQMMGLLSRSEAEALTKVLGDSNALGMVVATTDIDPSL
notes: major capsid protein P1 of Pseudomonas phage Φ6, wild type; The shell holds 120 copies of P1 (60 asymmetric P1A/P1B dimers) by the introduction; In the recombinant PCs of a11 P1 was co-expressed from pLM687 in E. coli JM109; also called main structural P1 protein; P1 shell; source: E. coli JM109, P1P4 particles from plasmid pLM358, P1 purified as previously described

Experiments:
[1] = molecular target: the molecule itself; assay: co-sedimentation; in vitro self-assembly of purified P1 and P4 (120:72), no P2, no P7 (P1P4 reaction); room temperature, 90 min, 250 to 350 mM NaCl, 20 mM Tris pH 8.0, 6% PEG 4000, P1 about 0.2 mg/ml; rate-zonal centrifugation in 10% to 30% sucrose, light-scattering zones analysed by SDS-PAGE
[2] = molecular target: B1; assay: co-sedimentation; in vitro self-assembly of purified P1, P4 (120:72) and P2 or P2 variant at 10×P2 (P1:P2 120:120), no P7; room temperature, 90 min, 250 to 350 mM NaCl, 20 mM Tris pH 8.0, 6% PEG 4000; rate-zonal centrifugation in 10% to 30% sucrose, P2 copies per particle from SDS-PAGE; details: both partners purified

Binder | binding result [1] | copies of P2 variant per particle [2] [copies per particle]
B1 | binds | 
Φ6 P2 surface mutant HER (histidine-tagged) (enzyme, Pseudomonas phage Φ6, UniProt P11124 1-665, looked up, RNA-dependent RNA polymerase P2 of Pseudomonas phage Φ6 with His443 to Ala, Glu444 to Gln and Arg470 to Ala, made from pEM33 (C-terminal hexahistidine tag); source: E. coli BL21(DE3), plasmid pXS29, purified as described for N-terminally histidine-tagged P2; not shown: His6, C-terminal, kept) MPRRAPAFPLSDIKAQMLFANNIKAQQASKRSFKEGAIETYEGLLSVDPRFLSFKNELSRYLTDHFPANVDEYGRVYGNGVRTNFFGMRHMNGFPMIPATWPLASNLKKRADADLADGPVSERDNLLFRAAVRLMFSDLEPVPLKIRKGSSTCIPYFSNDMGTKIEIAERALEKAEEAGNLMLQGKFDDAYQLHQMGGAYYVVYRAQSTDAITLDPKTGKFVSKDRMVADFEYAVTGGEQGSLFAASKDASRLKEQYGIDVPDGFFCERRRTAMGGPFALNAPIMAVAQPVRNKIYSKYAYTFHHTTRLNKEEKVKEWSLCVATDVSDHDTFWPGWLRDLICDELLNMGYAPWWVKLFETSLKLPVYVGAPAPEQGHTLLGDPSNPDLEVGLSSGQGATDLMGTLLMSITYLVMQLDHTAPHLNSRIKDMPSACRFLDSYWQGAQEIRQISKSDDAILGWTKGRALVGGHALFEMLKEGKVNPSPYMKISYEHGGAFLGDILLYDSRREPGSAIFVGNINSMLNNQFSPEYGVQSGVRDRSKRKRPFPGLAWASMKDTYGACPIYSDVLEAIERCWWNAFGESYRAYREDMLKRDTLELSRYVASMARQAGLAELTPIDLEVLADPNKLQYKWTEADVSANIHEVLMHGVSVEKTERFLRSVMPR |  | 6
Φ6 P2 surface mutant HERW (histidine-tagged) (enzyme, Pseudomonas phage Φ6, UniProt P11124 1-665, looked up, source: E. coli BL21(DE3), plasmid pXS30, purified as described for N-terminally histidine-tagged P2; not shown: His6, C-terminal, kept) MPRRAPAFPLSDIKAQMLFANNIKAQQASKRSFKEGAIETYEGLLSVDPRFLSFKNELSRYLTDHFPANVDEYGRVYGNGVRTNFFGMRHMNGFPMIPATWPLASNLKKRADADLADGPVSERDNLLFRAAVRLMFSDLEPVPLKIRKGSSTCIPYFSNDMGTKIEIAERALEKAEEAGNLMLQGKFDDAYQLHQMGGAYYVVYRAQSTDAITLDPKTGKFVSKDRMVADFEYAVTGGEQGSLFAASKDASRLKEQYGIDVPDGFFCERRRTAMGGPFALNAPIMAVAQPVRNKIYSKYAYTFHHTTRLNKEEKVKEWSLCVATDVSDHDTFWPGWLRDLICDELLNMGYAPWWVKLFETSLKLPVYVGAPAPEQGHTLLGDPSNPDLEVGLSSGQGATDLMGTLLMSITYLVMQLDHTAPHLNSRIKDMPSACRFLDSYWQGAQEIRQISKSDDAILGWTKGRALVGGHALFEMLKEGKVNPSPYMKISYEHGGAFLGDILLYDSRREPGSAIFVGNINSMLNNQFSPEYGVQSGVRDRSKRKRPFPGLAWASMKDTYGACPIYSDVLEAIERCWANAFGESYRAYREDMLKRDTLELSRYVASMARQAGLAELTPIDLEVLADPNKLQYKWTEADVSANIHEVLMHGVSVEKTERFLRSVMPR |  | 4
Φ6 P2 surface mutant W576A (histidine-tagged) (enzyme, Pseudomonas phage Φ6, UniProt P11124 1-665, looked up, RNA-dependent RNA polymerase P2 of Pseudomonas phage Φ6 with Trp576 to Ala, made from pEM33 (C-terminal hexahistidine tag); source: E. coli BL21(DE3), plasmid pXS28, purified as described for N-terminally histidine-tagged P2; not shown: His6, C-terminal, kept) MPRRAPAFPLSDIKAQMLFANNIKAQQASKRSFKEGAIETYEGLLSVDPRFLSFKNELSRYLTDHFPANVDEYGRVYGNGVRTNFFGMRHMNGFPMIPATWPLASNLKKRADADLADGPVSERDNLLFRAAVRLMFSDLEPVPLKIRKGSSTCIPYFSNDMGTKIEIAERALEKAEEAGNLMLQGKFDDAYQLHQMGGAYYVVYRAQSTDAITLDPKTGKFVSKDRMVADFEYAVTGGEQGSLFAASKDASRLKEQYGIDVPDGFFCERRRTAMGGPFALNAPIMAVAQPVRNKIYSKYAYTFHHTTRLNKEEKVKEWSLCVATDVSDHDTFWPGWLRDLICDELLNMGYAPWWVKLFETSLKLPVYVGAPAPEQGHTLLGDPSNPDLEVGLSSGQGATDLMGTLLMSITYLVMQLDHTAPHLNSRIKDMPSACRFLDSYWQGHEEIRQISKSDDAILGWTKGRALVGGHRLFEMLKEGKVNPSPYMKISYEHGGAFLGDILLYDSRREPGSAIFVGNINSMLNNQFSPEYGVQSGVRDRSKRKRPFPGLAWASMKDTYGACPIYSDVLEAIERCWANAFGESYRAYREDMLKRDTLELSRYVASMARQAGLAELTPIDLEVLADPNKLQYKWTEADVSANIHEVLMHGVSVEKTERFLRSVMPR |  | 12
